Laboratory results: patent US20240034786A1 (WUXI BIOLOGICS IRELAND, published 2024)
Where two headings read alike, the source gives them in different places.

Tests used:
[1] = biological target: T1, W319-hPro1.D123.ECD.hFc (WT) (human, UniProt P22223 108-461); assay: direct ELISA on coated antigen
T1 construct: range 108-461; also called Human P-cadherin ECD domain 1&2&3; domain 1-3; not shown: human Fc by the code hFc
Method: (§1) The binding of the antibodies to W319-hPro1.D1.ECD.hFc, W319-hPro1.D12.ECD.hFc (WT), W319-hPro1.D123.ECD.hFc (WT), W319-hPro1.D1234.ECD.hFc (WT) (2.5) and W319-hPro1.ECD.hFc (WT)-P3 were tested by a direct protein binding ELISA. 96-well high protein binding ELISA plates (Nunc MaxiSorp, ThermoFisher, Cat #: 442404) were coated overnight at 4° C. with 1 μg/mL antigens in Carbonate-bicarbonate buffer (20 mM Na2CO3, 180 mM NaHCO3, pH=9.2). All wells were washed three time with 300 μL per well of PBS/0.5‰ Tween-20 (v/v) and all the following wash steps in the assay were performed the same. The wells were then blocked for one hour with 2% BSA (Bovogen, Cat #: BSAS)/1×PBS (Ca+/Mg+) (Gibco, #14040-117) and washed three times. For the primary antibody binding, the testing antibodies including the BMKs and our antibodies serially diluted in 2% BSA/1×PBS (Ca+/Mg+) were added to the relevant wells and incubated at room temperature for two hours. Plates were washed three times prior to the addition of 100 μL of secondary antibody Goat anti-Human-IgG-F(ab′)2-HRP (Jackson, Cat #: 109-035-097) 5000-fold diluted in 2% BSA/1×PBS (Ca+/Mg+). Plates were incubated at room temperature for one hour, followed by six washes as describe above.
(§2) For the binding detection, 100 μL Tetramethylbenzidine (TMB) Substrate solution (Invitrogen, Cat #: 002023) was added to all wells for 10 minutes before stopping the reaction with 100 μL 2M HCl. The extent of the testing Abs binding to W319-hPro1.D1.ECD.hFc, W319-hPro1.D12.ECD.hFc (WT), W319-hPro1.D123.ECD.hFc (WT), W319-hPro1.D1234.ECD.hFc (WT) and W319-hPro1.ECD.hFc (WT)-P3 were determined by measuring the OD450 absorbance using the SpectraMax® M5e microplate reader. Wherever appropriate, binding EC50 values were obtained by the four-parameter non-linear regression analysis using GraphPad Prism 5 software.
(§3) Its binding epitope is different from BMKs.

[2] = biological target: T2, W319-hPro1.ECD.hFc (WT)-P3 (human, UniProt P22223 108-654); assay: direct ELISA on coated antigen
T2 construct: range 108-654; also called Human P-cadherin ECD; not shown: human Fc by the code hFc
Method: as §1, §2, §3

[3] = biological target: T3, W319-hPro1.D1234.ECD.hFc (WT) (human, UniProt P22223 108-550); assay: direct ELISA on coated antigen
T3 construct: range 108-550; also called Human P-cadherin ECD domain 1&2&3&4; domain 1-4; not shown: human Fc by the code hFc
Method: as §1, §2, §3

[4] = biological target: T4, W319-hPro1.D12.ECD.hFc (WT) (human, UniProt P22223 108-348); assay: direct ELISA on coated antigen
T4 construct: range 108-348; also called Human P-cadherin ECD domain 1&2; domain 1-2; not shown: human Fc by the code hFc
Method: as §1, §2, §3

[5] = biological target: T5, Human P-cadherin on cells (human, UniProt P22223 108-829); assay: FACS on HCT-116 cells, antibody kept in human serum at 37 C, Day 1
T5 construct: whole, on cells; Endogenous P-cadherin on tumour cell lines; also called hPro1
Method: The antibody stability in human serum was tested by FACS. Briefly, human serum was freshly isolated by centrifuging the fresh blood twice at 4000 rpm for 10 minutes. […] As a control, antibodies serum mix was frozen immediately without 37° C. incubation. For the FACS analysis, the samples from different time points were free-thawed simultaneously at 4° C. […] The cells were washed twice with 1% BSA/1×PBS (Ca+/Mg+). Alexa647 conjugated Goat anti-human IgG Fc (Jackson, #109-605-098) 1:500 diluted in 1% BSA/1×PBS (Ca+/Mg+) were added to the cells and incubated at 4° C. for 30 minutes. Cells were washed twice in the same buffer and the mean fluorescence (MFI) of stained cells was measured using a FACS Canto II cytometer (BD Biosciences) and analyzed by FlowJo. Wells containing no antibody or secondary antibody only were used to establish background fluorescence. Four-parameter non-linear regression analysis was used to obtain EC50 values for cell binding using GraphPad Prism6 software.

[6] = biological target: T5, Human P-cadherin on cells; assay: FACS on DU-145 cells
Method: (§4) Binding of the test antibodies to P-cadherin expressed on cells was determined by flow cytometry analysis. […] 1×10⁵ cells/well (100 μL) were added to each well of a 96-well U-plate (Corning, #3799) and centrifuged at 1500 rpm (Eppendorf, #5810R) for 5 minutes before removing the supernatant. Antibodies serially diluted in 1% BSA/1×PBS (Ca+/Mg+) were added at 100 μL/well to the pelleted cells and incubated at 4° C. for 1 hour. Anon-related hIgG1 antibody was used as an isotype control. Cells were washed two times with 180 μL/well of 1% BSA/1×PBS (Ca+/Mg+) by centrifugation at 1500 rpm for 5 minutes at 4° C. Pelleted cells were resuspended in 100 μL/well Alexa647 conjugated Goat anti-human IgG Fc (Jackson, #109-605-098) 1:500 diluted in 1% BSA/1×PBS (Ca+/Mg+) for 30 minutes at 4° C. in the dark. Cells were then washed two times as described above. After the final wash, cells were resuspended in 100 μL 1% BSA/1×PBS (Ca+/Mg+) and fluorescence values were measured with a FACS Canto II cytometer (BD Biosciences). The amount of cell surface bound anti-P-cadherin antibody was assessed by measuring the mean fluorescence (MFI). The FACS raw data were analyzed by FlowJo software, wells containing no antibody or secondary antibody only were used to establish background fluorescence. Binding EC50 values were obtained by the four-parameter non-linear regression analysis using GraphPad Prism6 software.

[7] = biological target: T5, Human P-cadherin on cells; assay: cell-based or functional assay
[8] = biological target: T5, Human P-cadherin on cells; assay: FACS on DU-145 cells; remark: listed apart in the source
Method: as §4

[9] = biological target: T5, Human P-cadherin on cells; assay: cell-based or functional assay; remark: listed apart in the source

T5 sequence (P22223 108-829): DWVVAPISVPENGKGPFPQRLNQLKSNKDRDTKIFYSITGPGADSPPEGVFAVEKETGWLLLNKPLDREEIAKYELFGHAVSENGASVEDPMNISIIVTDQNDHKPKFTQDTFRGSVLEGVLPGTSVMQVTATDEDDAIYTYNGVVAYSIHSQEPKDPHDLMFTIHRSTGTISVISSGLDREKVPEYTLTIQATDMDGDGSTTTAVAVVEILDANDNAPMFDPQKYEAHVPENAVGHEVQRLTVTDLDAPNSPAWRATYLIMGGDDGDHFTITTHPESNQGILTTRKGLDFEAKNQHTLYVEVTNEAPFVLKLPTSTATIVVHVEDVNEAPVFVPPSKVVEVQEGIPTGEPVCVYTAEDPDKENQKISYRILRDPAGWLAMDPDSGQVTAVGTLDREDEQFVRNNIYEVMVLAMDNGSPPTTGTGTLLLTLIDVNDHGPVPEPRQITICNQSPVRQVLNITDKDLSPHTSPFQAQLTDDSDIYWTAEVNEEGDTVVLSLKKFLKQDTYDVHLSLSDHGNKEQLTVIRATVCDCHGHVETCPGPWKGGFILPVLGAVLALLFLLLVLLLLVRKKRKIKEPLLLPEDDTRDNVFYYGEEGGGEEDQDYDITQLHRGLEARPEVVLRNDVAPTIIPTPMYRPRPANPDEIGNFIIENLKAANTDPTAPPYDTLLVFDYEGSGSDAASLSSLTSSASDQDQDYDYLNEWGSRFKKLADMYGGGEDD
T2 sequence (P22223 108-654): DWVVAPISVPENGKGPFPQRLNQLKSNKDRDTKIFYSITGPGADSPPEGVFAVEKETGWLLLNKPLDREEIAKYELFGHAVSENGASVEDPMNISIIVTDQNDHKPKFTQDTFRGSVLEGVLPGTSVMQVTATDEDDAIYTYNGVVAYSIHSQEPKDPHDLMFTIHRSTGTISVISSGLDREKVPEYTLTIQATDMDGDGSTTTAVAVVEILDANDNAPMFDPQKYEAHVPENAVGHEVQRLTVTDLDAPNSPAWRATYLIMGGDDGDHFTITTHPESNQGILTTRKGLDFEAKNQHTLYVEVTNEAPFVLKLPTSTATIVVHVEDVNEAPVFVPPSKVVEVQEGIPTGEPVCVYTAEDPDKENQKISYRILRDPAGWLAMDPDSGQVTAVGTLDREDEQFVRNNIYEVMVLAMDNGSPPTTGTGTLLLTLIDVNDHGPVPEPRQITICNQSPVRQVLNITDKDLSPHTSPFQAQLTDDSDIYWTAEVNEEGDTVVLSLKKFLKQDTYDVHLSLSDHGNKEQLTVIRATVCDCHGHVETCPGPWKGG
T3 sequence (P22223 108-550): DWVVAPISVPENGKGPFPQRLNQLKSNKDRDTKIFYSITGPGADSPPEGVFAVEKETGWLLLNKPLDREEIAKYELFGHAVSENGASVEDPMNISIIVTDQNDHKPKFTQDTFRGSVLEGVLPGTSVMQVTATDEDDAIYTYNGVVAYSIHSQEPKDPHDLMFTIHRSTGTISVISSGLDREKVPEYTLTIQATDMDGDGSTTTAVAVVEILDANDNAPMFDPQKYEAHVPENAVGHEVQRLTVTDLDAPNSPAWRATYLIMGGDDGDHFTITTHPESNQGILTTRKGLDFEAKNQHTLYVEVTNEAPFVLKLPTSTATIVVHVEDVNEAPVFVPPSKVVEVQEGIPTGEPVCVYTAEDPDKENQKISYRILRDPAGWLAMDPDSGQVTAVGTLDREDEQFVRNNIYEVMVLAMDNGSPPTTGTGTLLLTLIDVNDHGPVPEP
T1 sequence (P22223 108-461): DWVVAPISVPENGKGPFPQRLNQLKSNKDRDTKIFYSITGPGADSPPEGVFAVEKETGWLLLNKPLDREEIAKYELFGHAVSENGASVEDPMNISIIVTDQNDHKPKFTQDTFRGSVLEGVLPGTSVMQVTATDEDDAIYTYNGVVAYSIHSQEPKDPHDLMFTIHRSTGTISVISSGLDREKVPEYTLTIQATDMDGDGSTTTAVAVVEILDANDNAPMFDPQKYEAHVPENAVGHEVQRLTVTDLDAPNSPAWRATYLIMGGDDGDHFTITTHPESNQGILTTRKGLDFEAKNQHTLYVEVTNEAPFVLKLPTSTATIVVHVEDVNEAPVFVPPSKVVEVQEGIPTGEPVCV
T4 sequence (P22223 108-348): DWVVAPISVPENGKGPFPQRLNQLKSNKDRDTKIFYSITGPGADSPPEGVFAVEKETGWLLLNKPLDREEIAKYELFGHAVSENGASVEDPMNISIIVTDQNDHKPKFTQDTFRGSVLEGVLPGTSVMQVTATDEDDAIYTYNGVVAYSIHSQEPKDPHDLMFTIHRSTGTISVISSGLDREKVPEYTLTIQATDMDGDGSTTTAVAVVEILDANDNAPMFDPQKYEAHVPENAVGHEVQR

B1: W3195-1.53.1-p1-uIgG1L (antibody)
heavy: not shown
light: SYELTQPPSVSVSPGQTAQITCSGDKLGDKFASWYQQKSGQSPVVVIYQDNKRPSGFPERFSGSNSGNTATLTISGTQAMDEADYYCQAWDSSIVVFGGGTKLTVLGQPKAAPSVTLFPPSSEELQANKATLVCLISDFYPGAVTVAWKADSSPVKAGVETTTPSKQSNNKYAASSYLSLTPEQWKSHRSYSCQVTHEGSTVEKTVAPTECS
notes: also called W3195-p1 antibody
[1]
  EC50: 0.08 nM
  Max OD450: 2.83
[2]
  EC50: 0.14 nM
  Max OD450: 2.88
[3]
  EC50: 0.087 nM
  Max OD450: 2.88
[4]
  Max OD450: 0.08
[5]
  EC50: 0.19 nM
[6]
  EC50: 0.07 nM
  Max MFI: 2100
[7]
  internalization, Fab-ZAP on HCC-1954, IC50: 0.069 nM
  internalization, Fab-ZAP on HCC-1954, Max Inh %: 81%
[8]
  EC50: 0.1 nM
  Max MFI: 2290
[9]
  internalization, HCS assay on HCC-1954, EC50: 0.029 nM
